In assay [1] the target is human galectin-10-His (recombinant human galectin-10 with TEV-cleavable N-terminal His-tag) (human). Description: ELISA, scFv-hFc on coated galectin-10-His (0.2 ug/mL). (ELISA stands for enzyme-linked immunosorbent assay.)
Assay [2] concerns the target TEV-cleaved wild-type recombinant human galectin-10 (soluble, in Fab complexes, or as recombinant galectin-10 crystals / CLCs) (human) (UniProt Q05315). Description: cell-based or functional assay.
Assay [3] addresses T1, TEV-cleaved wild-type recombinant human galectin-10 (soluble, in Fab complexes, or as recombinant galectin-10 … (human, UniProt Q05315 1-142)).
T1 sequence: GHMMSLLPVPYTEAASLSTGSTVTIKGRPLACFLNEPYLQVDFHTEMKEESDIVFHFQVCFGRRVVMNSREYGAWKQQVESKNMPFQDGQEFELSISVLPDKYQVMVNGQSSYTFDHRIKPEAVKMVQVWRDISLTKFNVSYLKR
The experiment in a line: cell-based or functional assay.

Assay [4] concerns the target T2, human galectin-10-His (recombinant human galectin-10 with TEV-cleavable N-terminal His-tag) (human).
T2 construct: SEC-MALLS: dimer in solution; also called Gal10-His; humanGal10-His
T2 chain: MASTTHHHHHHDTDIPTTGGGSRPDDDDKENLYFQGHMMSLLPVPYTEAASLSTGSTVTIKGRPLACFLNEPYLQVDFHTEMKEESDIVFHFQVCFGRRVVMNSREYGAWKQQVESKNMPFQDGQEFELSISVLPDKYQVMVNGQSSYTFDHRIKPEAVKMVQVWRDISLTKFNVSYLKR
Description: ELISA binding (summary table), scFv-human Fc.

Assay [5] has as its target T2, human galectin-10-His (recombinant …). Description: SPR Biacore T3000, scFv-hFc captured by anti-human Fc, galectin-10-His as analyte.
The target of assay [6] is T1, TEV-cleaved wild-type recombinant human …. Description: cell-based or functional assay. This is another data set of the same source.
Assay [7] shares this target. Description: cell-based or functional assay. The source holds these as a separate data set.
Assay [8] has as its target T2, human galectin-10-His (recombinant …). Description: Biacore capture approach (summary table), scFv-human Fc. The method, then: In order to determine the binding properties (on-rate/off-rate) of the scFv-human Fc panel, their binding capacity to galectin-10 was analyzed on Biacore T3000. For this purpose, a capture approach was set up. A CM5 Chip was coated with polyclonal anti-human Fc at 8000 RU, then a fixed concentration of the scFv-human Fc panel (1.5 μg/mL), diluted in HBS-EP pH7.4, were captured to reach a binding signal around 150 RU. Finally, a serial dilution of galectin-10-His (serial dilution, 1 over 2 from 5 μg/mL, 6 points of dilution) diluted in HBS-EP pH7.4 was injected. Raw data were analyzed via BIA evaluation software with a blank subtraction (4-3). The kd/KD and Rmax of each scFv-human Fc for galectin-10-His was determined using the Fit Kinetics simultaneous ka/kd/Binding with mass transfer/Local Rmax on BIA evaluation software.
For orientation: Surface plasmon resonance follows binding to a sensor surface in real time, without labels.

Assay [9] has the same target. Description: ELISA, scFv-hFc on coated galectin-10-His (0.2 ug/mL). An outline of the steps:
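Serial dilutions of scFv-human Fc fusions were incubated on plates coated with galectin-10-His at 0.2 μg/mL and blocked with casein. Bound fusion was detected with anti-human Fc-HRP, read at 450 nm (reference 620 nm). EC50 from four-parameter non-linear regression of OD values.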

For assay [10] the target is unchanged. The experiment in a line: SPR Biacore T3000, scFv-hFc captured by anti-human Fc, galectin-10-His as analyte.
Assay [11] concerns the target T3, cynomolgus galectin-10-His, WGS isoform (cynomolgus).
T3 construct: also called cynoGal10-WGS; not shown: His tag
T3 chain: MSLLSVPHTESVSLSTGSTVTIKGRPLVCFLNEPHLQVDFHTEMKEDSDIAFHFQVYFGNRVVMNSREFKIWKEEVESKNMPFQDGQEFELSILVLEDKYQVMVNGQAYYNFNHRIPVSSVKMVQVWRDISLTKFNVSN
Description: SPR Biacore T3000, mouse IgG1 captured.

The target of assay [12] is T4, human galectin-10-His (human).
T4 construct: The last M of the tag may be Met1 of galectin-10; also called humanGal10-His; hGal10
T4 chain: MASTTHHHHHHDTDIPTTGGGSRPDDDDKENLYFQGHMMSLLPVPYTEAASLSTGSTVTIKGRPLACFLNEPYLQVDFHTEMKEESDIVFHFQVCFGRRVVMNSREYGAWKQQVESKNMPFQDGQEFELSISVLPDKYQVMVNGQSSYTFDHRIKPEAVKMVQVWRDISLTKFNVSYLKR
The experiment in a line: SPR Biacore T3000, mouse IgG1 captured.

The target in assay [13] is T5, recombinant human galectin-10, TEV-cleaved (human, UniProt Q05315 1-142).
T5 sequence: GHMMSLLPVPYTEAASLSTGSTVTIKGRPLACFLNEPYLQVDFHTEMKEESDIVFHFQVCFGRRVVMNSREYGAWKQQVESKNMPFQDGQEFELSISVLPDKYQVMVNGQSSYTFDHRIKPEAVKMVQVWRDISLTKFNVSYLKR
The experiment in a line: cell-based or functional assay.

For assay [14], the target named is T5, recombinant human galectin-10, …. Description: cell-based or functional assay. This is another data set of the same source.
Assay [15] has as its target T6, cynomolgus galectin-10-His, YRT isoform (cynomolgus).
T6 sequence: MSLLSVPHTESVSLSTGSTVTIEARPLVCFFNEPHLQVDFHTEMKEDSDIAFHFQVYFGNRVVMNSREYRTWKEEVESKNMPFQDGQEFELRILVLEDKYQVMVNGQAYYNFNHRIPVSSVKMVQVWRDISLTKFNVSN
Description: ELISA, coated antigen 0.5 ug/mL.

In assay [16] the target is T3, cynomolgus galectin-10-His, WGS isoform. The experiment in a line: ELISA, coated antigen 0.5 ug/mL.
Assay [17] deals with T4, human galectin-10-His. The experiment in a line: ELISA, coated antigen 0.5 ug/mL.
Assay [18] concerns the target T7, cynomolgus galectin-10-His, YRT isoform (cynomolgus).
T7 construct: not shown: His tag
T7 chain: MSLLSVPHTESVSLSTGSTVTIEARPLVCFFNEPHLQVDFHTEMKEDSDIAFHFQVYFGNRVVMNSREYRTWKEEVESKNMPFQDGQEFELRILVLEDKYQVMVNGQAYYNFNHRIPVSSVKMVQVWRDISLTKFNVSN
The experiment in a line: ELISA, VHH on coated cynomolgus YRT galectin-10-His (1 ug/mL).

Assay [19] has as its target T8, cynomolgus galectin-10-His, WGS isoform (cynomolgus).
T8 construct: not shown: His tag
T8 chain: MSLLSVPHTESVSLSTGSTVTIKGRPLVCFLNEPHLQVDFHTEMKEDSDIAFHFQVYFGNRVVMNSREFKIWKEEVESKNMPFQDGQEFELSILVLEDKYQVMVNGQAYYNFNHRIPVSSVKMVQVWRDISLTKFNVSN
Description: ELISA, VHH on coated cynomolgus WGS galectin-10-His (1 ug/mL).

Where two headings read alike, the source gives them in different places.

As a reminder, the EC50 is the concentration that produces a half-maximal response. One may read the Kd as the constant that tells how readily two partners part at equilibrium. Usually koff stands for the first-order rate constant of dissociation. Broadly, the kon is a measure of how fast the partners come together.

In the case of “Isotype control, scFv-human Fc (irrelevant scFv-human Fc) (Fc fusion)”, the Bmax (OD values) in assay [1] was found to be 0.018 OD. Further, the CLC formation (crystallization robot assay) in [2] amounted to 100%.

B1: 6F05 scFv-human Fc (Fc fusion)
scFv: QLQLVESGGGLVQPGGSLRLSCAASGFTFSSYAMSWVRQAPGKGLEWVSAINSGGGSTSYADSVKGRFTISRDNAKNTLYLQMNSLKPEDTAVYYCATPGDRLWYYRYDYWGQGTQVTVSSGGGGSGGGGSGGGGSQAGLTQPPSVSGTLGKAVTISCAGTSSDIGYGNYVSWYQQLPGTAPKLLIYKVSRRASGVPDRFSGSKSGNTASLSISGLQSEDEADYYCASYRYRNNVVFGGGTHLTVL
notes: about 100 kDa on SDS-PAGE; also called 6F5; 6F05 ScFv-hFc; not shown: CH2-CH3 constant domains of human IgG1 (vector pUPEX50)
In the case of B1, the “100% Inhibition of CLC formation (Conc uM)” value in assay [3] worked out at 1 µM. The “100% Solubilization of CLC (Conc uM)” value in assay [3] and in assay [7] was 4 µM in each case. The concentration for a half-maximal effect (EC50) in assay [4] and in assay [9] was 20 pM each time. Also, the equilibrium dissociation constant (Kd) in [5] came out at 918 pM; in assay [8] it was 900 pM. Further, the koff in assay [5] was 0.000117 s⁻¹; in assay [8] it was 0.00012 s⁻¹. The “dissolution of in vitro grown Gal10 crystals (spinning disk confocal microscopy)” value in assay [6] is not above 90 min. In assay [9], the “Bmax (OD values)” value is 2.9 OD.

B2: 6F11 scFv-human Fc (Fc fusion)
scFv: QVQRQESGPGLVKPSQTLSVTCTVSGGSITTGPYSWSWIRQPPGKGLEWIGYIGYSGSTYYSPSLKSRTSISRDTSNNQFSLQLSSVTPEDTAVYYCARSRSSPTTFGMDYWGKGTLVTVSSGGGGSGGGGSGGGGSSSALTQPSAVSVSLGQTARITCQGGDFGRYYVAWYTQKPGQAPVLVIYQDSERPSGIPERFSGSSSGDTATLTISGAQAEDEAEYYCQSGISSDNIVFGGGTHLTVL
notes: about 100 kDa on SDS-PAGE; also called 6F11 ScFv-hFc; not shown: CH2-CH3 constant domains of human IgG1 (vector pUPEX50)
As to B2, in assay [5], the Kd was 2960 pM and the koff was determined as 0.0172 s⁻¹. For the same molecule, in [10], the Kd was more than 17000 pM. In assay [9], the “Bmax (OD values)” value amounted to 1.56 OD and the half-maximal effective concentration (EC50) worked out at 480 pM.

B3: 7B07 mouse IgG1 (antibody, V domains shown)
VH: QVQLVESGGGLVQPGGSLRLSCAASGFTFRSYDMSWVRQAPGKGPEWVSAIKNGGGITYYADSVKGRFTISRDNAKNTLYLQMNSLKPEDTAVYYCATTHGIGTLGFGSWGQGTQVTVSS
VL: SYELTQSASVSVALTQTAKITCDGNNIGSKSAQWYQQKPGQAPALVIYADEYRPEGIPERFSGSNSGNTATLIISGAQAEDEADYYCQVWDGSAAVFGRGTHLTVL
notes: VH and VL cloned in frame with mouse IgG1 constant domains; also called 7B07 mIgG1
As for B3, in assay [11], the Kd was found to be 1500 pM, the koff came out at 0.066 s⁻¹ and the kon is 4.54e+07 M⁻¹ s⁻¹. Besides, in the assay with human galectin-10-His [12], the Kd was found to be 1400 pM, the off-rate constant (koff) is 0.0039 s⁻¹ and the kon worked out at 2.78e+06 M⁻¹ s⁻¹. In addition, in assay [13], the “50% crystal dissolution (min), 50 uM” value amounted to 31.8 min and the “90% crystal dissolution (min), 50 uM” value is 93 min. For the same molecule, in assay [14], the “50% dissolution (min) of CLCs, antibody 50 uM” value came out at 13.2 min and the “90% dissolution (min) of CLCs, antibody 50 uM” value is 44.4 min. In assay [15], this molecule showed an OD values of 0.01 OD. Moreover, in assay [16], the 50% effective concentration (EC50) turned out to be 60 pM and the OD values stood at 3.22 OD. For the same molecule, in the assay with human galectin-10-His [17], a half-maximal effect (EC50) was put at 570 pM and the OD values turned out to be 0.4 OD.

B4: 6A11 scFv-human Fc (Fc fusion)
scFv: ELQLVESGGGLVQPGGSLRLSCSASGFTFGAYAMNWVRQAPGKGLEWVSGVNSGGGLTSYGESVKGRFTISRDNAKNTLYLQMNRLNPDDTAVYYCAKSKRGAVVAGTGDDYWGQGTQVTVSSGGGGSGGGGSGGGGSSSALTQPSAVSVSLGQTARITCQGGNFGRYYVSWYQQKPGQAPVLVIYKDSERPSGIPERFSGSSSGDTATLTISGAQAEDEADYYCQSGSSSDNAVFGGGTHLTVL
notes: about 100 kDa on SDS-PAGE; also called 6A11 ScFv-hFc; not shown: CH2-CH3 constant domains of human IgG1 (vector pUPEX50)
As to B4, in [5], the equilibrium dissociation constant (Kd) turned out to be 711 pM and the off-rate constant (koff) was 0.124 s⁻¹. In addition, the Kd in [10] is more than 17000 pM. In assay [9], the “Bmax (OD values)” value worked out at 1.59 OD and the EC50 was 10 pM.

B5: VHH 1D06 (purified, Myc-His tagged) (VHH, not shown: small tags and cut ends)
VHH: QLQLVESGGGLVQPGGSLRLSCAASENSVSTYAMGWFRQAPGKEREFVAAITRAGGNTYNADSVKGRFTISRDNAENTIYLQMNSLKPEDTAVYSCAAGPRYSTISTMFPYWGQGTQVTVSS
notes: also called 1D6
Consider B5, for which the binding result in [18] and in [19] was “no binding” throughout.

For the origin of these results see patent US20190367619A1 (ARGENX, published 2019).
